In PMC8718839 (iScience, 2021):

T1: ActRIIB-Alk4-Fc (human, UniProt Q13705;P36896)
T1 sequence 1: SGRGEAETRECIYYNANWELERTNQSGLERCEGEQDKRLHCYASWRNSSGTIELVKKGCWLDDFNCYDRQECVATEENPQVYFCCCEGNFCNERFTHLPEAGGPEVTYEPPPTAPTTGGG
T1 sequence 2: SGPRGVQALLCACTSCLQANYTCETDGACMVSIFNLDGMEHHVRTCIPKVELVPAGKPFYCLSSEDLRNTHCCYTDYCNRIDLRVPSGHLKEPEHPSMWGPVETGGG

T2: (ActRIIB)2-Fc (UniProt Q13705-1 19-137)
T2 sequence: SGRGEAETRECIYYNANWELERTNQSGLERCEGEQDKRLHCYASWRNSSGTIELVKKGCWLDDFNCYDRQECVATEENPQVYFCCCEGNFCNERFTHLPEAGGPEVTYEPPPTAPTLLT

T3: ActRIIB-Fc (UniProt Q13705 19-137)
T3 sequence: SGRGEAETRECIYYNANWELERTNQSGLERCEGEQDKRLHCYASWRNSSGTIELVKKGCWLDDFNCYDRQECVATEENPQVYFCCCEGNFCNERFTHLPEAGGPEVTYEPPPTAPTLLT


Experiments:
ActRIIB-Alk4-Fc = biological target: T1, ActRIIB-Alk4-Fc; assay: SPR
(ActRIIB)2-Fc = biological target: T2, (ActRIIB)2-Fc; assay: SPR
ActRIIB-Fc = biological target: T3, ActRIIB-Fc; assay: SPR
crystal structure = biological target: the molecule itself; assay: crystal structure

Row | Binder | Kd (ActRIIB-Alk4-Fc) | Kd ((ActRIIB)2-Fc) | Kd (ActRIIB-Fc) | binding result (crystal structure)
1 | Activin A mature (ligand) GLECDGKVNICCKKQFFVSFKDIGWNDWIIAPSGYHANYCEGECPSHIAGTSGSSLSFHSTVINHYRMRGHSPFANLKSCCVPTKLRPMSMLYYDDGQNIIKKDIQNMIVEECGCS | 0.0304 nM | 0.0125 nM | 0.108 nM | binds
2 | GDF11 mature (ligand) NLGLDCDEHSSESRCCRYPLTVDFEAFGWDWIIAPKRYKANYCSGQCEYMFMQKYPHTHLVQQANPRGSAGPCCTPTKMSPINMLYFNDKQQIIYGKIPGMVVDRCGCS | 0.00424 nM | 0.00191 nM | 0.0147 nM | binds
